Patent publication US7030099B2, “Tumor specific promoters of the midkine gene that allow for selective expression in P53-inactivated cells” (Research Corporation Technologies, Inc., priority 2000, dated 2006)

B1: p344: c-erbB-2 genomic region −306/+38, SEQ ID NO: 8 (nucleic acid, listed as Homo sapiens)
DNA: CTAGGGAATTTATCCCGGACTCCGGGGGAGGGGGCAGAGTCACCAGCCTCTGCATTTAGGGATTCTCCGAGGAAAAGTGTGAGAACGGCTGCAGGCAACCCAGGCGTCCCGGCGCTAGGAGGGACGACCCAGGCCTGCGCGAAGAGAGGGAGAAAGTGAAGCTGGGAGTTGCCGACTCCCAGACTTCGTTGGAATGCAGTTGGAGGGGGCGAGCTGGGAGCGCGCTTGCTCCCAATCACAGGAGAAGGAGGAGGTGGAGGAGGAGGGCTGCTTGAGGAAGTATAAGAATGAAGTTGTGAAGCTGAGATTCCCCTCCATTGGGACCGGAGAAACCAGGGGAGCCC
B2: MK1.0: 1.0 kb of the human midkine genomic gene, base sequence SEQ ID NO: 2 (nucleic acid, listed as Homo sapiens)
DNA: GGCCGCGCTCGTCGGGGCCGGGCGGGGGCCGATCCCTCCGGCTTCCCTTCCCGCGGAGAACAACAATGAAAGTGAAAGAGGGGTGGGGCGGGGGCGAGCCCGGGTTCTGTGGCCCATTTGCCCTGTGGCCTTGAGCAAGCCCCTCCCCCAGGCCTCGGGGGCTCTCCCGGTTTGGGGGAACCGGGCGAGGCAATGCCACAGGCCCAGGGTTAGAGGGGGTGGGCACTTGCAGCTGCCGATGTGGCTGGATCTGGAACTTCTCAGACGGCTCCTGTCAGCGCCAAGTTTCACCAAATCCAGGCCTGCGGGCTCCTCCCCCAGGACCCCCACTCGCAGTCCCTCAAGCCTGTGCTCCCGGAAAGGCACTGGGCGACCGCACCCGTGGCTTTCTCTGGGCGACCGGGTCCCAGACTCCCCCCAGCACAGCAGAGCGCTTCCCTGCCCACCCGCGGAAACCGCCCCAGGTGGCCGCGCCCCCTCCCCAGCAGCCAGCAGGGCGCCAGGGCTGAGCCGGCCGTGGAGGGGAGCGGGTCCCGGGGGTTATACAGGCGCCGGGCGTCCGCGGCAGGCAAGAGAAGCTGAGGCCTGAGAACGGCCCGGGCCTTGGCGTACGGCAGGGGACGACCTGGGATGGGGGCAGCGGGCGGCGGCGCAGGGAGTGGGCCGGGGCCGGTGTGCGCGGGCGGGACGGGGCCGGGGTCGGGAGACCACCGCTCGGAAGATGGGGCCGGGAGAGGCCGCCGTCGCAGCGCAGAGGGCACCGGCGGGGAGACGCGAGGACGCGGGGCCGGGAACACGGACGCCGGAGTAGAAGCGCGGGGGGGGCGGGCTGGAGCGGGGGCGGGGACGCCGGGGTCGGGGGCGGTGCGGGTTTGAGGGGAGGGGGCGGGGCGGGTCCTTCCCTGGGGGGGTGGGGAGAGGGGGCGGGGGCCCATGTGACCGGCTCAGACCGGTTCTGGAGACAAAAGGGGCCGCGGCGGCCGGAGCGGGACGGGCCCGGCGCGGGAGGGAGCGAAGCAGCGCGGGCAGCGAGCGAGTGAG
B3: p533: c-erbB-2 genomic region from −435 to +38, SEQ ID NO: 7; conventionally used promoter (nucleic acid, listed as Homo sapiens)
DNA: GGGGGTCCTGGAAGCCACAAGGTAAACACAACACATCCCCCTCCTTGACTATCAATTTTACTAGAGGATGTGGTGGGAAAACCATTATTTGATATTAAAACAAATAGGCTTGGGATGGAGTAGGATGCAAGCTCCCCAGGAAAGTTTAAGATAAAACCTGAGACTTAAAAGGGTGTTAAGAGTGGCAGCCTAGGGAATTTATCCCGGACTCCGGGGGAGGGGGCAGAGTCACCAGCCTCTGCATTTAGGGATTCTCCGAGGAAAAGTGTGAGAACGGCTGCAGGCAACCCAGGCGTCCCGGCGCTAGGAGGGACGACCCAGGCCTGCGCGAAGAGAGGGAGAAAGTGAAGCTGGGAGTTGCCGACTCCCAGACTTCGTTGGAATGCAGTTGGAGGGGGCGAGCTGGGAGCGCGCTTGCTCCCAATCACAGGAGAAGGAGGAGGTGGAGGAGGAGGGCTGCTTGAGGAAGTATAAGAATGAAGTTGTGAAGCTGAGATTCCCCTCCATTGGGACCGGAGAAACCAGGGGAGCCC
B4: p124: c-erbB-2 genomic region −86/+38, SEQ ID NO: 10 (nucleic acid, listed as Homo sapiens)
DNA: CGCGCTTGCTCCCAATCACAGGAGAAGGAGGAGGTGGAGGAGGAGGGCTGCTTGAGGAAGTATAAGAATGAAGTTGTGAAGCTGAGATTCCCCTCCATTGGGACCGGAGAAACCAGGGGAGCCC
modifications: expressed or natural sequence

Legend:
[1] = tested on: lung cancer cells QG-56, neuroblastoma NGP; test: CAT assay of promoter transcription activity, tumor cells; format: cell-based, human; settings: tumor cells versus normal cells
Method: Using the above plasmid, or a plasmid pCAT-Control (manufactured by Promega) having the promoter of SV40 virus, and a plasmid pCAT-Basic (manufactured by Promega) containing no promoters, gene introduction was performed on the lung cancer cells QG-56, the neuroblastoma NGP, and the normal human fibroblasts MRC-5 that were being cultured in a DMEM (Sigma) supplemented with 10% bovine fetal serum. After 10 μg each of these plasmids and lipofectin (Life Technologies) were mixed, it was allowed to stand at room temperature for 30 minutes to form a complex. Then the complex, after removing the bovine fetal serum therefrom, was contacted with the cells. Eight hours later culture medium supplemented with bovine fetal serum was added, cultured for 40 hours, and then the gene-introduced cells were disrupted by ultrasonication. After centrifugation, the supernatants were used to examine their transcription activities with the known CAT assay method (Gorman, C M et al., Mol. Cell. Biol., 2:1044–1051, 1982) using [^14C]-chloramphenicol and acetyl CoA. At this time, in order to normalize the efficiency of gene introduction, 1 μg of the β-galactosidase gene (pCH110, manufactured by Amersham) was introduced at the same time, and the β-galactosidase activity (Heromel, P. et al., Cell, 39:653–662, 1984) was determined.

[2] = tested on: immortalized MRC-5 cells (p53 functions inactivated); test: In vitro sensitivity to GCV of promoter-TK gene-introduced cells (Cell Counting Kit-8 survival); format: cell-based, human; settings: HSV-TK gene powered by the promoter, GCV seven days, FIG. 2B
Method: (§1) (1) In order to examine cytotoxic effects by the transcription activity of the promoter obtained from the midkine gene, herpes simplex virus thymidine kinase (HSV-TK), a suicide gene, was ligated downstream of MK0.6 and MK2.3, and the plasmid was introduced in cells, and a prodrug gancyclovir (GCV) was added into the culture medium of the gene-introduced cells. The method of determining the cytotoxic effect by this system is as described in Moolten, FL. Cancer Gene Ther., 1:279–287, 1994.
(§2) First, the CMV promoter of pcDNA3 (manufactured by Invitrogen) was removed using NruI and HindIII sites, to which MK2.3 or Mk0.6 was inserted, and then using the EcoRV site, the HSV-TK gene excised from pMK (Brinster, R L et al., Cell, 27:223–231, 1981) with BglI and EcoRI was inserted. Each of the plasmids thus obtained (MK2.3-TK and MK0.6-TK) was introduced, as described above, using lipofectin into MRC-5 which are normal cells, or MRC-5 cells that had been immortalized by inactivating the functions of the p53 tumor suppressor gene. In order to utilize the expression of the Neo gene contained in pcDNA3 as drug resistant markers, the cells were cultured with 400 μg/ml of G418 (manufactured by Life Technologies) for ten days to establish the cells that expressed MK2.3-TK and MK0.6-TK, respectively. These cells were then plated at 500 cells/well of 96-well culture plates, and were cultured in the presence of various concentrations of GCV (manufactured by F. Hoffman-La Roche) for seven days. The survival rate of the cells was examined using the Cell Counting Kit-8 (manufactured by Dojin Kagaku). The survival of the cells at a GCV concentration of 0 μg/ml was set as 100%, and the survival for each experiment group is shown in terms of percentage in FIG. 2A and FIG. 2B.

normal MRC-5 cells = test: as above; format: cell-based, human; settings: HSV-TK gene controlled by the promoter, GCV seven days, FIG. 2A
Method: as §1, §2

[3] = tested on: normal human fibroblasts HEF, MRC-5; test: Luciferase assay of c-erbB-2 promoter activity, normal fibroblasts; format: cell-based; settings: FIG. 7B
Method: (§3) With the transcription initiation site of the c-erbB-2 gene as +1, DNA that corresponded to a genomic region (p533) from −435 to +38 and that had the sequence set forth in SEQ ID NO: 7 was amplified by the PCR method, and then the DNA fragment was integrated into the pGEM-TEasy (manufactured by Promega), and the sequences of the PCR product was determined. Thus, after inserting this PCR product into the SmaI site of pGL2-Basic (manufactured by Promega), it was cleaved with BlnI/SmaI, PstI/SmaI, and BssHII/SmaI using the restriction enzyme sites present on the c-erbB-2 genomic gene to construct plasmids in which the genomic regions of c-erbB-2, p344 (−306/+38) (DNA having the base sequence set forth in SEQ ID NO: 8), p251 (−213/+38) (DNA having the base sequence set forth in SEQ ID NO: 9) and p124 (−86/+38) (DNA having the base sequence set forth in SEQ ID NO: 10) are localized upstream of the Firefly luciferase gene, respectively. Using the plasmid pGL2-Control (manufactured by Promega) having the promoter of SV40 virus and the plasmid pGL2-Basic (manufactured by Promega) containing no promoters, gene introduction was performed in human breast cancer cells OCUBM, MCF7, BT549, normal human fibroblasts HEF, MRC-5, human malignant melanoma A875, and human lung cancer cells QG-56, all of which were cultured in DMEM (Sigma) supplemented with 10% bovine fetal serum. Firstly, after 10 μg each of these plasmids and lipofectin (Life Technologies) were mixed, it was allowed to stand at room temperature for 30 minutes to form a complex of DNA and lipid. Then the complex, after removing the bovine fetal serum therefrom, was contacted with the cells. Eight hours later culture medium supplemented with bovine fetal serum was added. After 48 hours-culture, the cells were disrupted using the Dual-Luciferase Reporter Assay System (manufactured by Promega), and the Firefly luciferase activity therein was determined using the reagents in the same kit. In order to normalize the efficiency of gene introduction, 1 μg of pRL-TK plasmid (manufactured by Promega) was included in each gene-introduced group, and the Renilla luciferase activity by the TK promoter was determined, based on which the Firefly luciferase activity was corrected.

[4] = tested on: human malignant melanoma A875, human lung cancer cells QG-56; test: Luciferase assay of c-erbB-2 promoter activity, non-breast tumor cells; format: cell-based; settings: human malignant melanoma cells and human lung cancer cells; FIG. 7C
Method: as §3

[5] = tested on: human breast cancer cells OCUBM, MCF7, BT549; test: Luciferase assay of c-erbB-2 promoter activity, breast cancer cells; format: cell-based; settings: FIG. 7A
Method: as §3, with “Then the complex, after removing the bovine fetal serum therefrom, was contacted with the cells. Eight hours later culture medium supplemented with bovine fetal serum was added.” left out

Row | Molecule | tumor-specificity of promoter activity [1] | promoter activity compared with SV40 promoter [3] | transcription activity compared with SV40 promoter [4] | further results
1 | MK2.3: 2.3 kb of the human midkine genomic gene, base sequence SEQ ID NO: 3; previously reported promoter [reference compound] | weak | – | – | sensitivity to GCV compared to that of the parent strain [2]: 1000 fold; sensitivity to GCV compared to that of the parent strain (normal MRC-5 cells): 500 fold
2 | B1 | – | more potent than the SV40 promoter activity in some cases | lower than the SV40 promoter | –
3 | B2 | weak | – | – | –
4 | B3 | – | more potent than the SV40 promoter activity in some cases | – | –
5 | B4 | – | – | lower than the SV40 promoter | transcription activity compared with other c-erbB-2 promoter fragments [5]: marked low compared with the p251 promoter
